B1: library; numbered along this chain (parent)
chain: MRKPRAAVGSGHRKQAASQEGRQKHAKNNSQAKPSACDGLARQPEEVVLQASVSSYHLFRDVAEVTAFRGSLLSWYDQEKRDLPWRRRAEDEMDLDRRAYAVWVSEVMLQQTQVATVINYYTGWMQKWPTLQDLASASLEEVNQLWAGLGYYSRGRRLQEGARKVVEELGGHMPRTAETLQQLLPGVGRYTAGAIASIAFGQATGVVDGNVARVLCRVRAIGADPSSTLVSQQLWGLAQQLVDPARPGDFNQAAMELGATVCTPQRPLCSQCPVESLCRARQRVEQEQLLASGSLSGSPDVEECAPNTGQCHLCLPPSEPWDQTLGVVNFPRKASRKPPREESSATCVLEQPGALGAQILLVQRPNSGLLAGLWEFPSVTWEPSEQLQRKALLQELQRWAGPLPATHLRHLGEVVHTFSHIKLTYQVYGLALEGQTPVTTVPPGARWLTQEEFHTAAVSTAMKKVFRVYQGQQPGTCMGSKRSQVSSPCSRKKPRMGQQVLDNFFRSHISTDAHSLNSAAQ

Variants of: B1
Assay: 8OG:A repair function score (normalized; synonymous = 0, nonsense = -1) (normalized log-likelihood score); higher = more repair activity (WT-like)
Settings: with 8OG:A DNA repair reporter (GFP) in HEK-293 MUTYH KO cells
Method: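 Saturation mutagenesis (NNN codon scan) of the MUTYH cDNA (521-aa nuclear isoform NM_001048174.1 / NP_001041639), stably expressed under doxycycline induction in HEK-293 MUTYH knockout cells. Cells were co-transfected with an 8OG:A-bearing GFP repair reporter plus mCherry and sorted 72 h later into GFP+ and GFP− bins, three replicates per tile. The Rosace log2 enrichment (GFP+ vs GFP−) was converted per tile to a normalized function score with synonymous variants centered at 0 and nonsense variants (codons 1-471) at -1; low-abundance variants were removed.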

Variant	8OG:A repair function score
MRKPRAAVGSGHRKQAASQEGRQKHAKNNSQAKPSACDGLARQPEEVVLQASVSSYHLFRDVAEVTAFRGSLLSWYDQEKRDLPWRRRAEDEMDLDRRAYAVWVSEVMLQQTQVATVINYYTGWMQKWPTLQDDASASLEEVNQLWAGLGYYSRGRRLQEGARKVVEELGGHMPRTAETLQQLLPGVGRYTAGAIASIAFGQATGVVDGNVARVLCRVRAIGADPSSTLVSQQLWGLAQQLVDPARPGDFNQAAMELGATVCTPQRPLCSQCPVESLCRARQRVEQEQLLASGSLSGSPDVEECAPNTGQCHLCLPPSEPWDQTLGVVNFPRKASRKPPREESSATCVLEQPGALGAQILLVQRPNSGLLAGLWEFPSVTWEPSEQLQRKALLQELQRWAGPLPATHLRHLGEVVHTFSHIKLTYQVYGLALEGQTPVTTVPPGARWLTQEEFHTAAVSTAMKKVFRVYQGQQPGTCMGSKRSQVSSPCSRKKPRMGQQVLDNFFRSHISTDAHSLNSAAQ [L134D]	-1.82
MRKPRAAVGSGHRKQAASQEGRQKHAKNNSQAKPSACDGLARQPEEVVLQASVSSYHLFRDVAEVTAFRGSLLSWYDQEKRDLPWRRRAEDEMDLDRRAYAVWVSEVMLQQTQVATVINYYTGWMQKWPTLQDKASASLEEVNQLWAGLGYYSRGRRLQEGARKVVEELGGHMPRTAETLQQLLPGVGRYTAGAIASIAFGQATGVVDGNVARVLCRVRAIGADPSSTLVSQQLWGLAQQLVDPARPGDFNQAAMELGATVCTPQRPLCSQCPVESLCRARQRVEQEQLLASGSLSGSPDVEECAPNTGQCHLCLPPSEPWDQTLGVVNFPRKASRKPPREESSATCVLEQPGALGAQILLVQRPNSGLLAGLWEFPSVTWEPSEQLQRKALLQELQRWAGPLPATHLRHLGEVVHTFSHIKLTYQVYGLALEGQTPVTTVPPGARWLTQEEFHTAAVSTAMKKVFRVYQGQQPGTCMGSKRSQVSSPCSRKKPRMGQQVLDNFFRSHISTDAHSLNSAAQ [L134K]	-0.914
MRKPRAAVGSGHRKQAASQEGRQKHAKNNSQAKPSACDGLARQPEEVVLQASVSSYHLFRDVAEVTAFRGSLLSWYDQEKRDLPWRRRAEDEMDLDRRAYAVWVSEVMLQQTQVATVINYYTGWMQKWPTLQDIASASLEEVNQLWAGLGYYSRGRRLQEGARKVVEELGGHMPRTAETLQQLLPGVGRYTAGAIASIAFGQATGVVDGNVARVLCRVRAIGADPSSTLVSQQLWGLAQQLVDPARPGDFNQAAMELGATVCTPQRPLCSQCPVESLCRARQRVEQEQLLASGSLSGSPDVEECAPNTGQCHLCLPPSEPWDQTLGVVNFPRKASRKPPREESSATCVLEQPGALGAQILLVQRPNSGLLAGLWEFPSVTWEPSEQLQRKALLQELQRWAGPLPATHLRHLGEVVHTFSHIKLTYQVYGLALEGQTPVTTVPPGARWLTQEEFHTAAVSTAMKKVFRVYQGQQPGTCMGSKRSQVSSPCSRKKPRMGQQVLDNFFRSHISTDAHSLNSAAQ [L134I]	-0.101
MRKPRAAVGSGHRKQAASQEGRQKHAKNNSQAKPSACDGLARQPEEVVLQASVSSYHLFRDVAEVTAFRGSLLSWYDQEKRDLPWRRRAEDEMDLDRRAYAVWVSEVMLQQTQVATVINYYTGWMQKWPTLQDEASASLEEVNQLWAGLGYYSRGRRLQEGARKVVEELGGHMPRTAETLQQLLPGVGRYTAGAIASIAFGQATGVVDGNVARVLCRVRAIGADPSSTLVSQQLWGLAQQLVDPARPGDFNQAAMELGATVCTPQRPLCSQCPVESLCRARQRVEQEQLLASGSLSGSPDVEECAPNTGQCHLCLPPSEPWDQTLGVVNFPRKASRKPPREESSATCVLEQPGALGAQILLVQRPNSGLLAGLWEFPSVTWEPSEQLQRKALLQELQRWAGPLPATHLRHLGEVVHTFSHIKLTYQVYGLALEGQTPVTTVPPGARWLTQEEFHTAAVSTAMKKVFRVYQGQQPGTCMGSKRSQVSSPCSRKKPRMGQQVLDNFFRSHISTDAHSLNSAAQ [L134E]	-0.848
MRKPRAAVGSGHRKQAASQEGRQKHAKNNSQAKPSACDGLARQPEEVVLQASVSSYHLFRDVAEVTAFRGSLLSWYDQEKRDLPWRRRAEDEMDLDRRAYAVWVSEVMLQQTQVATVINYYTGWMQKWPTLQDHASASLEEVNQLWAGLGYYSRGRRLQEGARKVVEELGGHMPRTAETLQQLLPGVGRYTAGAIASIAFGQATGVVDGNVARVLCRVRAIGADPSSTLVSQQLWGLAQQLVDPARPGDFNQAAMELGATVCTPQRPLCSQCPVESLCRARQRVEQEQLLASGSLSGSPDVEECAPNTGQCHLCLPPSEPWDQTLGVVNFPRKASRKPPREESSATCVLEQPGALGAQILLVQRPNSGLLAGLWEFPSVTWEPSEQLQRKALLQELQRWAGPLPATHLRHLGEVVHTFSHIKLTYQVYGLALEGQTPVTTVPPGARWLTQEEFHTAAVSTAMKKVFRVYQGQQPGTCMGSKRSQVSSPCSRKKPRMGQQVLDNFFRSHISTDAHSLNSAAQ [L134H]	-0.607
MRKPRAAVGSGHRKQAASQEGRQKHAKNNSQAKPSACDGLARQPEEVVLQASVSSYHLFRDVAEVTAFRGSLLSWYDQEKRDLPWRRRAEDEMDLDRRAYAVWVSEVMLQQTQVATVINYYTGWMQKWPTLQDCASASLEEVNQLWAGLGYYSRGRRLQEGARKVVEELGGHMPRTAETLQQLLPGVGRYTAGAIASIAFGQATGVVDGNVARVLCRVRAIGADPSSTLVSQQLWGLAQQLVDPARPGDFNQAAMELGATVCTPQRPLCSQCPVESLCRARQRVEQEQLLASGSLSGSPDVEECAPNTGQCHLCLPPSEPWDQTLGVVNFPRKASRKPPREESSATCVLEQPGALGAQILLVQRPNSGLLAGLWEFPSVTWEPSEQLQRKALLQELQRWAGPLPATHLRHLGEVVHTFSHIKLTYQVYGLALEGQTPVTTVPPGARWLTQEEFHTAAVSTAMKKVFRVYQGQQPGTCMGSKRSQVSSPCSRKKPRMGQQVLDNFFRSHISTDAHSLNSAAQ [L134C]	-0.394
MRKPRAAVGSGHRKQAASQEGRQKHAKNNSQAKPSACDGLARQPEEVVLQASVSSYHLFRDVAEVTAFRGSLLSWYDQEKRDLPWRRRAEDEMDLDRRAYAVWVSEVMLQQTQVATVINYYTGWMQKWPTLQDMASASLEEVNQLWAGLGYYSRGRRLQEGARKVVEELGGHMPRTAETLQQLLPGVGRYTAGAIASIAFGQATGVVDGNVARVLCRVRAIGADPSSTLVSQQLWGLAQQLVDPARPGDFNQAAMELGATVCTPQRPLCSQCPVESLCRARQRVEQEQLLASGSLSGSPDVEECAPNTGQCHLCLPPSEPWDQTLGVVNFPRKASRKPPREESSATCVLEQPGALGAQILLVQRPNSGLLAGLWEFPSVTWEPSEQLQRKALLQELQRWAGPLPATHLRHLGEVVHTFSHIKLTYQVYGLALEGQTPVTTVPPGARWLTQEEFHTAAVSTAMKKVFRVYQGQQPGTCMGSKRSQVSSPCSRKKPRMGQQVLDNFFRSHISTDAHSLNSAAQ [L134M]	-0.216
MRKPRAAVGSGHRKQAASQEGRQKHAKNNSQAKPSACDGLARQPEEVVLQASVSSYHLFRDVAEVTAFRGSLLSWYDQEKRDLPWRRRAEDEMDLDRRAYAVWVSEVMLQQTQVATVINYYTGWMQKWPTLQDNASASLEEVNQLWAGLGYYSRGRRLQEGARKVVEELGGHMPRTAETLQQLLPGVGRYTAGAIASIAFGQATGVVDGNVARVLCRVRAIGADPSSTLVSQQLWGLAQQLVDPARPGDFNQAAMELGATVCTPQRPLCSQCPVESLCRARQRVEQEQLLASGSLSGSPDVEECAPNTGQCHLCLPPSEPWDQTLGVVNFPRKASRKPPREESSATCVLEQPGALGAQILLVQRPNSGLLAGLWEFPSVTWEPSEQLQRKALLQELQRWAGPLPATHLRHLGEVVHTFSHIKLTYQVYGLALEGQTPVTTVPPGARWLTQEEFHTAAVSTAMKKVFRVYQGQQPGTCMGSKRSQVSSPCSRKKPRMGQQVLDNFFRSHISTDAHSLNSAAQ [L134N]	-0.686
MRKPRAAVGSGHRKQAASQEGRQKHAKNNSQAKPSACDGLARQPEEVVLQASVSSYHLFRDVAEVTAFRGSLLSWYDQEKRDLPWRRRAEDEMDLDRRAYAVWVSEVMLQQTQVATVINYYTGWMQKWPTLQDPASASLEEVNQLWAGLGYYSRGRRLQEGARKVVEELGGHMPRTAETLQQLLPGVGRYTAGAIASIAFGQATGVVDGNVARVLCRVRAIGADPSSTLVSQQLWGLAQQLVDPARPGDFNQAAMELGATVCTPQRPLCSQCPVESLCRARQRVEQEQLLASGSLSGSPDVEECAPNTGQCHLCLPPSEPWDQTLGVVNFPRKASRKPPREESSATCVLEQPGALGAQILLVQRPNSGLLAGLWEFPSVTWEPSEQLQRKALLQELQRWAGPLPATHLRHLGEVVHTFSHIKLTYQVYGLALEGQTPVTTVPPGARWLTQEEFHTAAVSTAMKKVFRVYQGQQPGTCMGSKRSQVSSPCSRKKPRMGQQVLDNFFRSHISTDAHSLNSAAQ [L134P]	-1.26
MRKPRAAVGSGHRKQAASQEGRQKHAKNNSQAKPSACDGLARQPEEVVLQASVSSYHLFRDVAEVTAFRGSLLSWYDQEKRDLPWRRRAEDEMDLDRRAYAVWVSEVMLQQTQVATVINYYTGWMQKWPTLQDGASASLEEVNQLWAGLGYYSRGRRLQEGARKVVEELGGHMPRTAETLQQLLPGVGRYTAGAIASIAFGQATGVVDGNVARVLCRVRAIGADPSSTLVSQQLWGLAQQLVDPARPGDFNQAAMELGATVCTPQRPLCSQCPVESLCRARQRVEQEQLLASGSLSGSPDVEECAPNTGQCHLCLPPSEPWDQTLGVVNFPRKASRKPPREESSATCVLEQPGALGAQILLVQRPNSGLLAGLWEFPSVTWEPSEQLQRKALLQELQRWAGPLPATHLRHLGEVVHTFSHIKLTYQVYGLALEGQTPVTTVPPGARWLTQEEFHTAAVSTAMKKVFRVYQGQQPGTCMGSKRSQVSSPCSRKKPRMGQQVLDNFFRSHISTDAHSLNSAAQ [L134G]	-0.824
MRKPRAAVGSGHRKQAASQEGRQKHAKNNSQAKPSACDGLARQPEEVVLQASVSSYHLFRDVAEVTAFRGSLLSWYDQEKRDLPWRRRAEDEMDLDRRAYAVWVSEVMLQQTQVATVINYYTGWMQKWPTLQDFASASLEEVNQLWAGLGYYSRGRRLQEGARKVVEELGGHMPRTAETLQQLLPGVGRYTAGAIASIAFGQATGVVDGNVARVLCRVRAIGADPSSTLVSQQLWGLAQQLVDPARPGDFNQAAMELGATVCTPQRPLCSQCPVESLCRARQRVEQEQLLASGSLSGSPDVEECAPNTGQCHLCLPPSEPWDQTLGVVNFPRKASRKPPREESSATCVLEQPGALGAQILLVQRPNSGLLAGLWEFPSVTWEPSEQLQRKALLQELQRWAGPLPATHLRHLGEVVHTFSHIKLTYQVYGLALEGQTPVTTVPPGARWLTQEEFHTAAVSTAMKKVFRVYQGQQPGTCMGSKRSQVSSPCSRKKPRMGQQVLDNFFRSHISTDAHSLNSAAQ [L134F]	-0.116
MRKPRAAVGSGHRKQAASQEGRQKHAKNNSQAKPSACDGLARQPEEVVLQASVSSYHLFRDVAEVTAFRGSLLSWYDQEKRDLPWRRRAEDEMDLDRRAYAVWVSEVMLQQTQVATVINYYTGWMQKWPTLQDAASASLEEVNQLWAGLGYYSRGRRLQEGARKVVEELGGHMPRTAETLQQLLPGVGRYTAGAIASIAFGQATGVVDGNVARVLCRVRAIGADPSSTLVSQQLWGLAQQLVDPARPGDFNQAAMELGATVCTPQRPLCSQCPVESLCRARQRVEQEQLLASGSLSGSPDVEECAPNTGQCHLCLPPSEPWDQTLGVVNFPRKASRKPPREESSATCVLEQPGALGAQILLVQRPNSGLLAGLWEFPSVTWEPSEQLQRKALLQELQRWAGPLPATHLRHLGEVVHTFSHIKLTYQVYGLALEGQTPVTTVPPGARWLTQEEFHTAAVSTAMKKVFRVYQGQQPGTCMGSKRSQVSSPCSRKKPRMGQQVLDNFFRSHISTDAHSLNSAAQ [L134A]	-0.0633
